The values that follow come from PMC8774819.

This data set has as its target BES1-MBP (Arabidopsis thaliana, UniProt Q9LN63 1-335). The data set is described as follows: EMSA. (In general: A gel shift assay detects complexes by their altered migration in electrophoresis.)

BES1-MBP, sequence (Q9LN63 whole entry): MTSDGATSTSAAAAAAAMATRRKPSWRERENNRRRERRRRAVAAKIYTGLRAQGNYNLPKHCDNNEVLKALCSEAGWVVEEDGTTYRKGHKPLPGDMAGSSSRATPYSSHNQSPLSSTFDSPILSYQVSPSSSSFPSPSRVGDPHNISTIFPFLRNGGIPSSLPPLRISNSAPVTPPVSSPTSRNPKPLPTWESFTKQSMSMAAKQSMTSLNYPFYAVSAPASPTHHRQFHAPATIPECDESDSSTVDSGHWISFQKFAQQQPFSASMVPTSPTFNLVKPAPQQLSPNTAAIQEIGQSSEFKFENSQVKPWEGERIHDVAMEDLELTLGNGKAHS

B1: WOX4 promoter probe c (dsDNA)
DNA 1: GTAACGAGAAAGGCATGCATAGCATTTGCTAGTTTTAACATATAGCA
DNA 2: TGCTATATGTTAAAACTAGCAAATGCTATGCATGCCTTTCTCGTTAC
Consider B1, for which the binding result was “binds”.

B2: WOX4 promoter probe a (dsDNA)
DNA 1: CCATCTGATCACAGCTTGACACACGAATCAGGTTATCCATCGTGTGA
DNA 2: TCACACGATGGATAACCTGATTCGTGTGTCAAGCTGTGATCAGATGG
As to B2, the binding result is listed as “binds”.
